Reference: US20100184663A1
Ends that are not written are not given here.

How the values were obtained:
D-IZN17 (HIV-1) [1] = biological target: D-IZN17 (HIV-1) (UniProt P04578); test: clonal phage binding assay in the presence of 25 µM L-2K-PIE2 competitor
D-IZN17 (HIV-1) [2] = biological target: D-IZN17 (HIV-1) (UniProt P04578); test: clonal phage binding assay, solution phase, D-IZN17 pulled down on streptavidin beads

B1: PIE7-φ (peptide)
peptide: GACDYPEWQWLCAA
modifications: not fully specified (C-terminus); cysteine pairing not given here; also: displayed on M13 g3 protein
In the case of B1, the fold binding relative to PIE2-φ (D-IZN17 (HIV-1) [1]) is reported as 10 fold.

GACDYPEWRWLCAAA [PIE2-AAA-φ] was tested, and the fold binding relative to wt PIE2-φ (D-IZN17 (HIV-1) [1]) was 70 fold.

B2: PIE2-φ (peptide)
peptide: GACDYPEWRWLCAA
modifications: not fully specified (C-terminus); cysteine pairing not given here; also: displayed on M13 g3 protein
B2 gave a fold binding relative to PIE9-φ (D-IZN17 (HIV-1) [1]) of 3 fold and a fold binding relative to PIE1-φ (D-IZN17 (HIV-1) [2]) of 5 fold.

B3: PIE8-φ (peptide)
peptide: GACDYKEWQWLCAA
modifications: not fully specified (C-terminus); cysteine pairing not given here; also: displayed on M13 g3 protein
Work on B3 yielded a fold binding relative to PIE2-φ (D-IZN17 (HIV-1) [1]) of 2 fold.
